From US20220175921A1 (published 2022)

T1: cynomolgus GITR, membrane bound (on activated cynomolgus T cells)
T1 chain: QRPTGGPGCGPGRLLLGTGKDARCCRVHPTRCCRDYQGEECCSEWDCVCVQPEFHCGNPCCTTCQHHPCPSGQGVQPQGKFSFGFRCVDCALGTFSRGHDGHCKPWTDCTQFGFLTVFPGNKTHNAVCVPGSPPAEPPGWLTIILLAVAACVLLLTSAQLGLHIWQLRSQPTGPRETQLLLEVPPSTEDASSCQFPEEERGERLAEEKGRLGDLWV

T2: human GITR, membrane bound (on activated human T cells or on 3A9-hGITR cells) (UniProt Q9Y5U5 26-241)
T2 chain: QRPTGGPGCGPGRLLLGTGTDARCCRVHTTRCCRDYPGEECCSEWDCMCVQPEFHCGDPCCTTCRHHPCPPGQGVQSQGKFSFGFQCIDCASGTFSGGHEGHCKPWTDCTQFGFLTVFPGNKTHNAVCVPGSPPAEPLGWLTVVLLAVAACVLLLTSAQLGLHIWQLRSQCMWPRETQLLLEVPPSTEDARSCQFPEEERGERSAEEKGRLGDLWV

B1: 3C3 (antibody, V domains shown)
VH: QVQLQQWGAGLLKPSETLSLTCAVYGGSFSGYYWTWIRQPPGKGLEWIGKINHSGNTNYNPSLKSRVTISVDTSKNQFSLKLSSVTAADTAVYYCARLGAFDAFDIWGQGTMVTVSS
VL: DIQMTQSPSSLSASVGDRVTITCRASQGISSWLAWYQQKPEKAPKSLIYAASSLQSGVPSRFSGSGSGTDFTLTISSLQPEDFATYYCQQYNSYPYTFGQGTKLEIKR
B2: anti-GITR.g2.g1.1f (antibody)
chain 1: QVQLVESGGGVVQPGRSLRLSCAASGFTFSSYGMHWVRQAPGKGLEWVAVIWYEGSNKYYADSVKGRFTISRDNSKNTLYLQMNSLRAEDTAVYYCARGGSMVRGDYYYGMDVWGQGTTVTVSSASTKGPSVFPLAPCSRSTSESTAALGCLVKDYFPEPVTVSWNSGALTSGVHTFPAVLQSSGLYSLSSVVTVPSSNFGTQTYTCNVDHKPSNTKVDKTVERKCCVECPPCPAPPVAGPSVFLFPPKPKDTLMISRTPEVTCVVVDVSHEDPEVKFNWYVDGVEVHNAKTKPREEQYNSTYRVVSVLTVLHQDWLNGKEYKCKVSNKALPSSIEKTISKAKGQPREPQVYTLPPSREEMTKNQVSLTCLVKGFYPSDIAVEWESNGQPENNYKTTPPVLDSDGSFFLYSKLTVDKSRWQQGNVFSCSVMHEALHNHYTQKSLSLSPG
chain 2: not shown
B3: anti-GITR.g2 (antibody)
chain 1: QVQLVESGGGVVQPGRSLRLSCAASGFTFSSYGMHWVRQAPGKGLEWVAVIWYEGSNKYYADSVKGRFTISRDNSKNTLYLQMNSLRAEDTAVYYCARGGSMVRGDYYYGMDVWGQGTTVTVSSASTKGPSVFPLAPCSRSTSESTAALGCLVKDYFPEPVTVSWNSGALTSGVHTFPAVLQSSGLYSLSSVVTVPSSNFGTQTYTCNVDHKPSNTKVDKTVERKCCVECPPCPAPPVAGPSVFLFPPKPKDTLMISRTPEVTCVVVDVSHEDPEVQFNWYVDGVEVHNAKTKPREEQFNSTFRVVSVLTVVHQDWLNGKEYKCKVSNKGLPAPIEKTISKTKGQPREPQVYTLPPSREEMTKNQVSLTCLVKGFYPSDIAVEWESNGQPENNYKTTPPMLDSDGSFFLYSKLTVDKSRWQQGNVFSCSVMHEALHNHYTQKSLSLSPGK
chain 2: not shown

Experiments:
[1] = biological target: T1, cynomolgus GITR, membrane bound (on …); assay: FACS
[2] = biological target: T2, human GITR, membrane bound (on …); assay: FACS

Binder | EC50 [1] | EC50 [2]
B1 | 142000 pM | –
B2 | – | 163 pM
B3 | – | 277 pM
